Literature values in PMC9785887.

Experiments:
[1] = target: Neuropilin-1 (Homo sapiens) (UniProt O14786)
[2] = target: Integrin αvβ6 (Homo sapiens) (UniProt P06756)
Sequence of UniProt P06756 (P06756 31-992, chain 1 of 2): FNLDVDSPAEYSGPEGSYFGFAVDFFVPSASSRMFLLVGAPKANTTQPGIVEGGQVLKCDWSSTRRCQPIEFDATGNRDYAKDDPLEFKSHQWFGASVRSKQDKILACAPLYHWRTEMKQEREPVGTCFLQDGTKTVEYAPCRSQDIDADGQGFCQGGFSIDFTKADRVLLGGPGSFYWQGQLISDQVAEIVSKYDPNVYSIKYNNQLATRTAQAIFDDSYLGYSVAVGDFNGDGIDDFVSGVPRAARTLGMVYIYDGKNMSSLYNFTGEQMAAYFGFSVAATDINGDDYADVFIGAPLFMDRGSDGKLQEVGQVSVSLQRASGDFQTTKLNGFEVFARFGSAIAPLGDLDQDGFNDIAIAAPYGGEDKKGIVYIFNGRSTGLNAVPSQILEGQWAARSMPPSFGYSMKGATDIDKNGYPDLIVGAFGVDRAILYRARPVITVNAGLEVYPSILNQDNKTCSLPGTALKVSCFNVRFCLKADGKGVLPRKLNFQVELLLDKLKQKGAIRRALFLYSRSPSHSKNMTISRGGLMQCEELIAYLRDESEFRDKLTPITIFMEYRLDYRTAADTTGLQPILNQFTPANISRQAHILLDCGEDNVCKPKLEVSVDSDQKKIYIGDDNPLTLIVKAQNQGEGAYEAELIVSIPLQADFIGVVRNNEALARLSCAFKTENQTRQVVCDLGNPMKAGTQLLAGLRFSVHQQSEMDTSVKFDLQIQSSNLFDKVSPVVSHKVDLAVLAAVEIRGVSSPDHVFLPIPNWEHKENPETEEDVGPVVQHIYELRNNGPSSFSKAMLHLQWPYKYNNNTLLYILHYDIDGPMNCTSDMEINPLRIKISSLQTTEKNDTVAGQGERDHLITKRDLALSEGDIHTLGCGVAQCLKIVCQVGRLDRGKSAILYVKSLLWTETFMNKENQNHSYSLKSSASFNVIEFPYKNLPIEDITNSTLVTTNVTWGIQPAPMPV
Sequence of UniProt P06756 (P18564 22-709, chain 2 of 2, further chain): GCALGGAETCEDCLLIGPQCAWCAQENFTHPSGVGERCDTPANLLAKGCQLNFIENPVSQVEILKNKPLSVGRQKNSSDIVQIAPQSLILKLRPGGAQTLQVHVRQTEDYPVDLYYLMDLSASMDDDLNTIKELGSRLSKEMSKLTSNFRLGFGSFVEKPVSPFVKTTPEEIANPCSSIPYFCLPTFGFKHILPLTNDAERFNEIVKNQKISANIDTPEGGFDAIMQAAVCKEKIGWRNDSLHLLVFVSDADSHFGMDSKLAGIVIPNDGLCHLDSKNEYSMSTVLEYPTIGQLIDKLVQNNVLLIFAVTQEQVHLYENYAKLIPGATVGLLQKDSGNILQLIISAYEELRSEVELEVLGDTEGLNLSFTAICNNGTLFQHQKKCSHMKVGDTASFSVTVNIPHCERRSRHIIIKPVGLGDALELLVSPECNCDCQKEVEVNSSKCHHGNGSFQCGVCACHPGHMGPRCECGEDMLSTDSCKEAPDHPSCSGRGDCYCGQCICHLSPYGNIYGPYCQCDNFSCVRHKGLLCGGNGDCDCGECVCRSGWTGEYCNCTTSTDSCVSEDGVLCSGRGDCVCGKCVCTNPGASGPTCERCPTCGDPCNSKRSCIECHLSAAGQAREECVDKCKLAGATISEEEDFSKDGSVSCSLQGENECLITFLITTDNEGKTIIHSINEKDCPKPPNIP

Sequence of UniProt O14786 (O14786 22-856): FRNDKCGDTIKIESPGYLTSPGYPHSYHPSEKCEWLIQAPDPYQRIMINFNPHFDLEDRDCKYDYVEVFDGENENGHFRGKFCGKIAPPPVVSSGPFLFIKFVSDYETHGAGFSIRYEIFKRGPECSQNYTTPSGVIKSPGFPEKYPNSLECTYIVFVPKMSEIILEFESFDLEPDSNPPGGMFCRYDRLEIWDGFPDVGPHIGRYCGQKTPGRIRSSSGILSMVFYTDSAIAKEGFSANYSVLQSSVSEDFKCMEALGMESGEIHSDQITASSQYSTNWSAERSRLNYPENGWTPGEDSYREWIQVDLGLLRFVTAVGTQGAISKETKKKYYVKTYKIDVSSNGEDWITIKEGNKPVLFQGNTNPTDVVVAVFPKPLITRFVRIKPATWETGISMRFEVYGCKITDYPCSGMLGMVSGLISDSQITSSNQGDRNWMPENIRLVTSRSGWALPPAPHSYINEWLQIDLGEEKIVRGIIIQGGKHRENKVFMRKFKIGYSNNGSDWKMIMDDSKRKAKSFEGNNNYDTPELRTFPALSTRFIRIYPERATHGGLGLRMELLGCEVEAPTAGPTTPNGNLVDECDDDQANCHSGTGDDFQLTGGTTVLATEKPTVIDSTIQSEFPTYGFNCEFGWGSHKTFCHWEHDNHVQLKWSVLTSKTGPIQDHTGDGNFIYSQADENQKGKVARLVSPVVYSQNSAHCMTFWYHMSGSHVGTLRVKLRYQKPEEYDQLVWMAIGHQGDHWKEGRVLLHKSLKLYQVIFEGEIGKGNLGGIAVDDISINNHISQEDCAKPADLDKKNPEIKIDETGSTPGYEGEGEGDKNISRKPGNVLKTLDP
Sequence of Chromogranin A peptide CgA39-63 (P10645 57-81): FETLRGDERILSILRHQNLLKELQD

| Kd [1] [nM] | Ki [2] [nM] | Substance |
| --- | --- | --- |
| 3.49 | – | Chromogranin A 1-373 1-373 (from UniProt P10645) |
| – | 15.5 | Chromogranin A peptide CgA39-63 |
